Experimental data reported in publication PMC5685503.

Target: isolated phosphodiesterase (PDE) domain of RhoPDE (Salpingoeca rosetta) (UniProt F2TZN0)
Assay: SEC

Substance: isolated phosphodiesterase (PDE) domain of RhoPDE (from UniProt F2TZN0 386-702) (domain or fragment)
- stoichiometry N: 2
